Experimental data published in publication doi:10.1101/847806 (bioRxiv, 2019).

What was measured:
OTUB1 wild-type = OTUB1 wild-type (UniProt Q96FW1 1-271); experiment: ITC
[1] = molecular target: OTUB1 (C91S), catalytically inactive mutant (UniProt Q96FW1 1-271, C91S); experiment: ITC
OTUB1 (C91S), catalytically inactive mutant, sequence (Q96FW1 whole entry C91S): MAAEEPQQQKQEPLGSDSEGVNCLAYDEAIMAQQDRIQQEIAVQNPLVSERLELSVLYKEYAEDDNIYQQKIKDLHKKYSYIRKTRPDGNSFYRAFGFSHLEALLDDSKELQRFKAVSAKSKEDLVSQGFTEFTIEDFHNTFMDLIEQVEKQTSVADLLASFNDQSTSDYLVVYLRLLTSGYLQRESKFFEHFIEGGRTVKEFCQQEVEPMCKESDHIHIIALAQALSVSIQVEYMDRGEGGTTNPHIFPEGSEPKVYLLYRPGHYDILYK

OTUB1 wild-type, sequence (Q96FW1 whole entry): as the sequence (Q96FW1 whole entry C91S) above, with S91C counted along it

Row | Binder | binding result (OTUB1 wild-type) | binding result [1] | Kd [1] [µM]
1 | UBE2D1 (enzyme) not shown | binds | binds | 
2 | UBE2E1 (enzyme, human, UniProt P51965 1-193, looked up) MSDDDSRASTSSSSSSSSNQQTEKETNTPKKKESKVSMSKNSKLLSTSAKRIQKELADITLDPPPNCSAGPKGDNIYEWRSTILGPPGSVYEGGVFFLDITFTPEYPFKPPKVTFRTRIYHCNINSQGVICLDILKDNWSPALTISKVLLSICSLLTDCNPADPLVGSIATQYMTNRAEHDRMARQWTKRYAT |  | binds | 
3 | UBE2N (enzyme, human, UniProt P61088 1-152, looked up) MAGLPRRIIKETQRLLAEPVPGIKAEPDESNARYFHVVIAGPQDSPFEGGTFKLELFLPEEYPMAAPKVRFMTKIYHPNVDKLGRICLDILKDKWSPALQIRTVLLSIQALLSAPNPDDPLANDVAEQWKTNEAQAIETARAWTRLYAMNNI |  |  | 8.1
